# Experimental data as given in article PMC4942345 (Organic & biomolecular chemistry, 2016).
# Primed or numbered codes have the meaning given here. Where no end group is shown, it is not given here. [ ]: non-standard residue; d: D form. The star is where a group is joined. 4‑CBS″ = 4-carboxybenzylsulfonamide on the N-terminus, O=C(O)c1ccc(CS(=O)(=O)*)cc1; 4‑CBS = 4-carboxybenzylsulfonamide, O=C(O)c1ccc(CS(=O)(=O)*)cc1
# B1: 4-CBS-LKEYD (peptide)
# peptide: {4‑CBS}-LKEYD
# B2: 4-CBS-dveye (peptide)
# peptide: {4‑CBS″}-[dD][dV][dE][dY][dE]-NH2
# B3: 4-CBS-dleey (peptide)
# peptide: {4‑CBS″}-[dD][dL][dE][dE][dY]-NH2
# B4: 4-CBS-dvddl (peptide)
# peptide: {4‑CBS″}-[dD][dV][dD][dD][dL]-NH2
# B5: 4-CBS-dvevl (peptide)
# peptide: {4‑CBS″}-[dD][dV][dE][dV][dL]-NH2
# B6: 4-CBS-dadvl (peptide)
# peptide: {4‑CBS″}-[dD][dA][dD][dV][dL]-NH2
# B7: 4-CBS-dvdvl (peptide)
# peptide: {4‑CBS}-[dD][dV][dD][dV][dL]
# B8: 4-CBS-dvddy (peptide)
# peptide: {4‑CBS″}-[dD][dV][dD][dD][dY]-NH2
# B9: 4-CBS-dlddw (peptide)
# peptide: {4‑CBS}-[dD][dL][dD][dD][dW]
# B10: 4-CBS-dvdey (peptide)
# peptide: {4‑CBS″}-[dD][dV][dD][dE][dY]-NH2
# Biological target: human carbonic anhydrase II (human, UniProt P00918 1-260)
# Test: SPR
row,Kd [nM],Binder
1,59,B1
2,97,B2
3,88,B3
4,156,B4
5,82,B5
6,185,B6
7,82,B7
8,82,B8
9,22,B9
10,63,B10

# Biological target: human carbonic anhydrase I (human, UniProt P00915 1-261)
# Sequence (P00915 whole entry): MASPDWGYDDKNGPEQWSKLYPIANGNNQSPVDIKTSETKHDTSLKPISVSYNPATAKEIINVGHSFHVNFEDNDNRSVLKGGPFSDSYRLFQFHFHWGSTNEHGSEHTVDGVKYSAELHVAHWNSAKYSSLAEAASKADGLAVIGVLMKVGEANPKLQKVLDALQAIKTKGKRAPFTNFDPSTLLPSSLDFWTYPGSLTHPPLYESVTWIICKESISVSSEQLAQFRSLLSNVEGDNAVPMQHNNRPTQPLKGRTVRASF
# Test: SPR
row,Kd [nM],Binder
1,81,B1
2,121,B2
3,116,B3
4,137,B4
5,151,B5
6,130,B6
7,83,B7
8,102,B8
9,25,B9
10,55,B10
